According to FireProtDB (doi:10.1021/bi020450z):

Details: Bos taurus; pH 8.5; Thermal; CD; Glycine; reversible: YES; whole UniProt chain shown

B1: Adrenodoxin, mitochondrial wild type, P00257 (protein)
chain: MAARLLRVASAALGDTAGRWRLLARPRAGAGGLRGSRGPGLGGGAVATRTLSVSGRAQSSSEDKITVHFINRDGETLTTKGKIGDSLLDVVVQNNLDIDGFGACEGTLACSTCHLIFEQHIFEKLEAITDEENDMLDLAYGLTDRSRLGCQICLTKAMDNMTVRVPDAVSDARESIDMGMNSSKIE
Tm: 51.9 °C
